From IntAct's records for PubMed 26388029 come the findings set out here.

The target in one assay is ubp1_human USP1 (UniProt O94782).
Sequence of ubp1_human USP1 (O94782 whole entry): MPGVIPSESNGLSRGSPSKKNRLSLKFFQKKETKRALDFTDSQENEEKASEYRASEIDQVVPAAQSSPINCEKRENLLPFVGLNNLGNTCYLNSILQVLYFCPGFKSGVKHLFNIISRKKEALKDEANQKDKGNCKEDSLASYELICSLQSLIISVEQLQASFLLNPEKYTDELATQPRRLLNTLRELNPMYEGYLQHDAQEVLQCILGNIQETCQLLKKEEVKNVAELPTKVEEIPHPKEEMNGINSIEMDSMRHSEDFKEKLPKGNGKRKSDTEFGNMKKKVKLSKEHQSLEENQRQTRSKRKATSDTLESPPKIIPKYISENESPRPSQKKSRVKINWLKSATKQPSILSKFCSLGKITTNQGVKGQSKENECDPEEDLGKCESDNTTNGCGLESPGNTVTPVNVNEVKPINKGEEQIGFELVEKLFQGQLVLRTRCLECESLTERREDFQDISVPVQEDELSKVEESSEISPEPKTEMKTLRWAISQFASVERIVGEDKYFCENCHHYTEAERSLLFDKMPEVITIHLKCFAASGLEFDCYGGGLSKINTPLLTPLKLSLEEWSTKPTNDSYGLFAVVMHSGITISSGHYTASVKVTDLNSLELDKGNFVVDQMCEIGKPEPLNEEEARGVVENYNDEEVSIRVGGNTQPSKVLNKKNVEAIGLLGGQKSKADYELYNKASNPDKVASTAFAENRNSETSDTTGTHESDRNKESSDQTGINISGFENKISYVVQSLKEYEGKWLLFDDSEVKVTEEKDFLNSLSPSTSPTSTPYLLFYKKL

Sequence of USP46, P62068-1 (P62068 whole entry): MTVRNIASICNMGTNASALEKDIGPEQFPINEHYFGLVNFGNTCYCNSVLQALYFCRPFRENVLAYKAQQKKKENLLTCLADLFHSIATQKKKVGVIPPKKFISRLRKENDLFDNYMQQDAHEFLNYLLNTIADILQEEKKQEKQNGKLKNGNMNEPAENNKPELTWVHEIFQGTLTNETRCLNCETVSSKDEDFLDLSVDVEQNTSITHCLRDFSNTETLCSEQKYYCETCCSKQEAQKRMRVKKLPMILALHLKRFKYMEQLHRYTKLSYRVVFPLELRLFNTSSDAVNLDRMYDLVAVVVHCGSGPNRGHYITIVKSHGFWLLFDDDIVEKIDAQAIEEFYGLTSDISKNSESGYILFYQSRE

As for “WD repeat-containing protein 48 (Homo sapiens), Q8TAF3-1 S170Y”, in the assay with USP46, P62068-1, the “effect of a mutation on the interaction” value is listed as “decreasing interaction strength”.
With “WD repeat-containing protein 48 (Homo sapiens), Q8TAF3-1 K214E;W256A;R272D”, the “effect of a mutation on the interaction” value is listed as “disrupting interaction strength” in the assay with USP46, P62068-1 and “disrupting interaction strength” with ubp1_human USP1.
